Columns and labels:
[1] = target: NRP1 expressed on COS cells (COS-NRP1); experiment: cell-based or functional assay
[2] = target: the molecule itself; experiment: sucrose density gradient sedimentation of C6 cell lysates, anti-NRP1 western blot

| Molecule | collapsed COS-1 cells expressing NRP1 and Plexin-A1 [1] [%] | binding result [2] |
| --- | --- | --- |
| Sema3A (ligand) | > 50 | – |
| NRP1 on rat C6 glioma cells (receptor, rat (Rat C6 glioma cells), UniProt Q9QWJ9 22-922, looked up, whole, on cells; It is not tied expressly to the C6 cells; also called neuropilin-1; receptor NRP1 on C6 cells) FRSDKCGGTIKIENPGYLTSPGYPHSYHPSEKCEWLIQAPEPYQRIMINFNPHFDLEDRDCKYDYVEVIDGENEGGRLWGKFCGKIAPSPVVSSGPFLFIKFVSDYETHGAGFSIRYEIFKRGPECSQNYTAPTGVIKSPGFPEKYPNSLECTYIIFAPKMSEIILEFESFDLEQDSNPPGGVFCRYDRLEIWDGFPEVGPHIGRYCGQKTPGRIRSSSGILSMVFYTDSAIAKEGFSANYSVLQSSISEDFKCMEALGMESGEIHSDQITASSQYGTNWSVERSRLNYPENGWTPGEDSYREWIQVDLGLLRFVTAVGTQGAISKETKKKYYVKTYRVDISSNGEDWITLKEGNKAIIFQGNTNPTDVVFGVFPKPLITRFVRIKPASWETGISMRFEVYGCKITDYPCSGMLGMVSGLISDSQITASNQGDRNWMPENIRLVTSRTGWALPPSPHPYINEWLQVDLGDEKIVRGVIIQGGKHRENKVFMRKFKIAYSNNGSDWKMIMDDSKRKAKSFEGNNNYDTPELRAFTPLSTRFIRIYPERATHSGLGLRMELLGCEVEVPTAGPTTPNGNPVDECDDDQANCHSGTGDDFQLTGGTTVLATEKPTIIDSTIQSEFPTYGFNCEFGWGSHKTFCHWEHDSHAQLRWRVLTSKTGPIQDHTGDGNFIYSQADENQKGKVARLVSPVVYSQSSAHCMTFWYHMSGSHVGTLRVKLHYQKPEEYDQLVWMVVGHQGDHWKEGRVLLHKSLKLYQVIFEGEIGKGNLGGIAVDDISINNHIPQEDCAKPTDLDKKNTEIKIDETGSTPGYEEGKGDKNISRKPGNVLKTLDPILITIIAMSALGVLLGAVCGVVLYCACWHNGMSERNLSALENYNFELVDGVKLKKDKLNPQSNYSEA | – | binds |

— patent US20150307589A1 (INSERM INSTITUT NATIONAL DE LA SANTE ET DE LA RECHERCHE …, published 2015)
